Measured values from US20210340276A1 (Astellas, published 2021).
Changes are numbered by the printed parent chain.

B1: P10-1 Fab (Fab, V domains shown)
VH: QVQLVQSGAEVKKPGASVKVSCKASGYTFTNYGLSWVRQAPGQGLEWMGENHPGSGIIYHNEKFRGRVTLTADRSTSTAYMELSSLRSEDTAVYYCARSSGTRGFAYWGQGTLVTVSS
VL: DVVMTQTPLSLSVTPGQPASISCRSSQSIVHSNGNTYLEWYLQKPGQSPQLLIYRVSNRFSGVPDRFSGSGSGTDFTLKISRVEAEDVGVYYCFQGSHGPWTFGQGTKLEIKR
notes: expressed in Expi293F cells, purified with KappaSelect; also called anti-human MUC1 antibody Fab fragment P10-1
B2: P10-2 Fab (Fab, V domains shown)
VH: B1 VH with A106D
VL: B1 VL
modifications: heavy chain N-terminal glutamine modified into pyroglutamic acid in a great majority of purified antibodies (Example 2)
notes: expressed in Expi293F cells, purified with KappaSelect; also called anti-human MUC1 antibody Fab fragment P10-2

Molecular target: T1, human cancer-specific MUC1 (on breast cancer cell line T-47D cells) (human, UniProt P15941 24-1255, cancer-specific incomplete O-glycosylation (T, Tn, 2,3ST) of the tandem repeat, as described in the background)
T1 construct: whole, on cells; cells fixed in formalin; also called Mucin 1
Assay: Cell ELISA on formalin-fixed T-47D cells, HRP anti-human Igκ detection, luminescence; reference 1B2 Fab
Experimental: Specifically, breast cancer cell line T-47D cells (purchasable from ATCC; HTB-133) expressing human cancer-specific MUC1 were inoculated at 0.75×10⁴ cells per well to a 96-well ELISA plate coated with collagen I, and cultured overnight. […] Then, a horseradish peroxidase (HRP)-labeled goat anti-human Igκ antibody (Southern Biotechnology Associates, Inc.) was reacted as a secondary antibody. ECL Prime Western Blotting Detection Reagent (GE Healthcare Japan Corp.) was added thereto for luminescence, and the degree of the luminescence was examined.

Binder | fold binding activity compared to 1B2 Fab [times]
B1 | ≥ 10
B2 | ≥ 10
